Data taken from US20150322137A1 (EVEC, published 2015).

B1: EV046130 (antibody, human IgG1, lambda, V domains shown)
VH: QVQLVESGGGVAQPGRSLRLSCAASGFTLSNYGMHWVRQAPGKGLEWVAVIWYDGRNKYYADSVKGRFTISRDDFKNTLDLQMNSLRAEDTAVYYCARDQHAGITMIEDWGQGTLVTVSS
VL: QSALTQPPSASGSPGQSVTISCTGTSSDVGYFKYVSWYQQHPGKAPKLLIYEVSKRPSGVPDRFSGSRSGNTASLTVSGLQADDEADYYCGSYAGNNNIIFGGGTKLTVLG
B2: EV046136 (antibody, human IgG1, kappa, V domains shown)
VH: QVQLVQSGAEMKKPGASVKVSCKASGYTFTDYFIHWVRQAPGQGLEWMGWVNPNSGATNYAQKFQGRVTMTGDTSLSAAYVDLSRLSSDDSAVYYCARDRGLGISSTRNDAFDIWGQGTTVTVSS
VL: DIQLTQSPSSLSASVGDRVTITCQPSQGIRNFLNWYQQKPGKAPNLLIYDASNLETGVASRFSGSGSGTHFTLTISSLQPEDIATYFCQQYHSLPLTFGGGTKVEIKR
B3: EV046135 (antibody, human IgG1, lambda, V domains shown)
VH: QEQLVESGGDLVKPGGSLRITCAASGFTLSGYALVWVRQAPGRGLEWIADITASSTYINYAASVKGRFTISRDNAQSSLFLQMSSLRADDTGVYFCARLPHLPGFFDLWGRGTLVSVSS
VL: QSVLTQPPSVSGAPGQRVTISCTGNSSNIGAGYDVNWYQHLPGTAPKLLISVNTNRPSGVPDRFSGSMSGTSASLAITGLQAEDEADYYCQSYDRRLSGYVFGTGTKVTVLG

Columns and labels:
Test in all cases: cell-based or functional assay
[1] = target: T1, F protein of human metapneumovirus strain JPS03-180 (type A1), on infectious virus (human metapneumovirus, strain JPS03-180 …)
[2] = target: T2, F protein of human metapneumovirus strain JPS05-21 (type B2), on infectious virus (human metapneumovirus, strain JPS05-21 …)
[3] = target: T3, F protein of human metapneumovirus strain JPS02-76 (type B1), on infectious virus (human metapneumovirus, strain JPS02-76 …, UniProt Q6WB98 19-539)
[4] = target: T3, F protein of human metapneumovirus …; remark: listed apart in the source
[5] = target: T4, F protein of human metapneumovirus strain JPS03-178 (type A2), on infectious virus (human metapneumovirus, strain JPS03-178 …)
[6] = target: T1, F protein of human metapneumovirus …; remark: listed apart in the source
[7] = target: T2, F protein of human metapneumovirus …; remark: listed apart in the source
[8] = target: T3, F protein of human metapneumovirus …; remark: listed apart in the source
[9] = target: T4, F protein of human metapneumovirus …; remark: listed apart in the source
[10] = target: T1, F protein of human metapneumovirus …; remark: listed apart in the source
[11] = target: T2, F protein of human metapneumovirus …; remark: listed apart in the source
[12] = target: T3, F protein of human metapneumovirus …; remark: listed apart in the source
[13] = target: T4, F protein of human metapneumovirus …; remark: listed apart in the source
[14] = target: T1, F protein of human metapneumovirus …; remark: listed apart in the source
[15] = target: T2, F protein of human metapneumovirus …; remark: listed apart in the source

Binder	IC50, neutralizing activity (hMPV infection of LLC-MK2 cells) [1] [mg/L]	IC50, neutralizing activity (hMPV infection of LLC-MK2 cells) [2] [mg/L]	IC50, neutralizing activity (hMPV infection of LLC-MK2 cells) [3] [mg/L]	IC50, cell-to-cell spread inhibitory activity (LLC-MK2 cells stably expressing TMPRSS2) [4] [mg/L]	IC90, cell-to-cell spread inhibitory activity (LLC-MK2 cells stably expressing TMPRSS2) [4] [mg/L]	IC60, neutralizing activity (hMPV infection of LLC-MK2 cells; GraphPad Prism 6) [5] [mg/L]	IC60, neutralizing activity (hMPV infection of LLC-MK2 cells; GraphPad Prism 6) [6] [mg/L]	IC60, neutralizing activity (hMPV infection of LLC-MK2 cells; GraphPad Prism 6) [7] [mg/L]	IC60, neutralizing activity (hMPV infection of LLC-MK2 cells; GraphPad Prism 6) [8] [mg/L]	IC90, neutralizing activity (hMPV infection of LLC-MK2 cells; GraphPad Prism 6) [9] [mg/L]	IC90, neutralizing activity (hMPV infection of LLC-MK2 cells; GraphPad Prism 6) [10] [mg/L]	IC90, neutralizing activity (hMPV infection of LLC-MK2 cells; GraphPad Prism 6) [11] [mg/L]	IC90, neutralizing activity (hMPV infection of LLC-MK2 cells; GraphPad Prism 6) [12] [mg/L]	IC50, neutralizing activity (hMPV infection of LLC-MK2 cells; GraphPad Prism 6) [13] [mg/L]	IC50, neutralizing activity (hMPV infection of LLC-MK2 cells; GraphPad Prism 6) [14] [mg/L]	IC50, neutralizing activity (hMPV infection of LLC-MK2 cells; GraphPad Prism 6) [15] [mg/L]
B1	0.21	0.089	0.23	0.0349	0.147	2.01	0.254	0.132	0.354	2.3	0.486	0.358	0.714	1.95	0.22	0.105
B2	0.29	0.46	0.31	0.0522	0.212	0.358	0.358	0.67	0.419	0.605	0.605	1.78	0.895	0.318	0.318	0.537
B3	0.35	0.22	0.37	0.0308	0.231	0.0471	0.44	0.268	0.571	0.277	1.24	0.748	1.44	0.0316	0.348	0.213
